Results reported in paper PMC9759531, “USP5-Beclin 1 axis overrides p53-dependent senescence and drives Kras-induced tumorigenicity” (Nature Communications, 2022).

Target: the molecule itself
Assay: SDS-PAGE without DTT (non-reducing) and western blot; purified recombinant His-USP5 or His-USP5^C195A in PBS treated with H2O2 for 10 min; SDS-PAGE with or without DTT (Fig. 5g, Supplementary Fig. S5e); western blot of H2O2-treated protein (Fig. 5k)

B1: His-USP5 (purified recombinant) (enzyme, human, UniProt P45974 1-858, looked up)
chain: MAELSEEALLSVLPTIRVPKAGDRVHKDECAFSFDTPESEGGLYICMNTFLGFGKQYVERHFNKTGQRVYLHLRRTRRPKEEDPATGTGDPPRKKPTRLAIGVEGGFDLSEEKFELDEDVKIVILPDYLEIARDGLGGLPDIVRDRVTSAVEALLSADSASRKQEVQAWDGEVRQVSKHAFSLKQLDNPARIPPCGWKCSKCDMRENLWLNLTDGSILCGRRYFDGSGGNNHAVEHYRETGYPLAVKLGTITPDGADVYSYDEDDMVLDPSLAEHLSHFGIDMLKMQKTDKTMTELEIDMNQRIGEWELIQESGVPLKPLFGPGYTGIRNLGNSCYLNSVVQVLFSIPDFQRKYVDKLEKIFQNAPTDPTQDFSTQVAKLGHGLLSGEYSKPVPESGDGERVPEQKEVQDGIAPRMFKALIGKGHPEFSTNRQQDAQEFFLHLINMVERNCRSSENPNEVFRFLVEEKIKCLATEKVKYTQRVDYIMQLPVPMDAALNKEELLEYEEKKRQAEEEKMALPELVRAQVPFSSCLEAYGAPEQVDDFWSTALQAKSVAVKTTRFASFPDYLVIQIKKFTFGLDWVPKKLDVSIEMPEELDISQLRGTGLQPGEEELPDIAPPLVTPDEPKGSLGFYGNEDEDSFCSPHFSSPTSPMLDESVIIQLVEMGFPMDACRKAVYYTGNSGAEAAMNWVMSHMDDPDFANPLILPGSSGPGSTSAAADPPPEDCVTTIVSMGFSRDQALKALRATNNSLERAVDWIFSHIDDLDAEAAMDISEGRSAADSISESVPVGPKVRDGPGKYQLFAFISHMGTSTMCGHYVCHIKKEGRWVIYNDQKVCASEKPPKDLGYIYFYQRVAS
notes: USP5; Treated with H2O2 before the dimerisation assays; also called recombinant USP5; WT USP5; source: E. coli BL21(DE3), purified (HisTrap HP, Superdex 200 increase)
- stoichiometry N: 2
